How the values were obtained:
[1] = test system: ZC3H12D short isoform (hZC36), Alexa Fluor 488 labeled (Homo sapiens); experiment: FCS; conditions: 1 nM protein, 10 nM RNA; EMSA: 100 mM HEPES pH 7.3, 200 mM KCl, 10 mM MgCl2, 10 mM DTT, glycerol, tRNA; FCS: protein diluted in 50 mM HEPES pH 7.4, 100 mM NaCl; temperature not given
[2] = target: T1, ZC3H12D short isoform (hZC36) (Homo sapiens, UniProt A2A288-4 1-321); experiment: EMSA; tRNA; very rough estimate by authors; EMSA: 100 mM HEPES pH 7.3, 200 mM KCl, 10 mM MgCl2, 10 mM DTT, glycerol, tRNA; FCS: protein diluted in 50 mM HEPES pH 7.4, 100 mM NaCl; temperature not given; conditions: protein: recombinant; tags: C-terminal myc-FLAG (pCMV6-Entry)
T1 sequence: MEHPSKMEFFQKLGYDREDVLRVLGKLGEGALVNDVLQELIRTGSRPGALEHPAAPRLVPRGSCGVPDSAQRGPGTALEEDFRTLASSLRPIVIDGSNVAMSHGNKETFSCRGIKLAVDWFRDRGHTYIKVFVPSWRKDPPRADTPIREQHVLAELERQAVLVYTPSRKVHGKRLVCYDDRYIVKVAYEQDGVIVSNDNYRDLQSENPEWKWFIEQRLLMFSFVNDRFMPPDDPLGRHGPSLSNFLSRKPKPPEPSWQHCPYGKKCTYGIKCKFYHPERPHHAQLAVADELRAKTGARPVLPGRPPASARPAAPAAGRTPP

Molecule: bactin-mRNA
- Kd [1]: 1 nM

Molecule: IL1b-mRNA full length
- Kd [1]: 1 nM

Molecule: UAUUUAUUUAUGUAUUUAUUGAUUGGUUGAUCUAUUUAAGUUGAUUCAAG (ssRNA) [EMSA probe 5]
- Kd [2]: ~31.6 nM

Reference: paper PMC8208975, “Extracellular mRNA transported to the nucleus exerts translation-independent function”
